The values below are quoted from earlier work in article PMC8495453.

The target in the data set is Galectin-3 (Homo sapiens) (UniProt P17931).
Sequence of Galectin-3 (Homo sapiens) (P17931 2-250): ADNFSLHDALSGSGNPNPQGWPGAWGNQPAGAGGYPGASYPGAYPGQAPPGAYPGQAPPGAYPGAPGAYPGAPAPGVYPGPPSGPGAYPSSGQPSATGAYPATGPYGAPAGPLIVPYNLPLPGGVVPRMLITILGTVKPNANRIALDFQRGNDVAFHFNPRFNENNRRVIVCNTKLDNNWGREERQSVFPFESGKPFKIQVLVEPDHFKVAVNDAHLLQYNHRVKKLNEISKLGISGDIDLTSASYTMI

Sequence of LAMP1 29-382 (P11279 29-382): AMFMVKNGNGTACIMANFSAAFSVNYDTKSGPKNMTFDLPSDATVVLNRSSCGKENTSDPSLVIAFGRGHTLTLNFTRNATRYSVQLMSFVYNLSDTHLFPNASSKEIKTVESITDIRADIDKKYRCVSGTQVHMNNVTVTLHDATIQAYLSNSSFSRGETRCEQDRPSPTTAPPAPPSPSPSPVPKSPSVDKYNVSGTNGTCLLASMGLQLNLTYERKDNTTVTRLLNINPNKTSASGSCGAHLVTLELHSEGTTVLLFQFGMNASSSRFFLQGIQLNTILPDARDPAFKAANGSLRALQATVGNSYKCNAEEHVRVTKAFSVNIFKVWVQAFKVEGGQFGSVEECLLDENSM

As a reminder, the Kd is the constant that tells how readily two partners part at equilibrium. As to LAMP1 29-382 (from UniProt P11279), the dissociation constant Kd is less than 25 nM.
